Our source for the koff and kon values is US20260226110A1.

For the test, the target named is single antigen M1 peptide segment of monkeypox virus (monkeypox virus isolate MPXV_USA_2022_MA001) (UniProt M1LBP0).
UniProt M1LBP0, sequence (M1LBP0 1-181 limits assumed): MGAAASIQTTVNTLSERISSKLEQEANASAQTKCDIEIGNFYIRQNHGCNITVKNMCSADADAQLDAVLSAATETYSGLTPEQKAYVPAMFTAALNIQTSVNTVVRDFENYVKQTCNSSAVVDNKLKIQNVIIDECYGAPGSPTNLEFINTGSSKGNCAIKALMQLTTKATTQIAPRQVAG

The substance neutralizing antibody 7D11 registered an off-rate (koff) of 0.00476 s⁻¹ and an on-rate (kon) of 1.44e+06 M⁻¹ s⁻¹.
